The values below are quoted from earlier work in publication PMC4438997.

The series concerns the target Ezrin FERM (Homo sapiens) (UniProt P15311).
Chain of UniProt P15311 (P15311 1-299): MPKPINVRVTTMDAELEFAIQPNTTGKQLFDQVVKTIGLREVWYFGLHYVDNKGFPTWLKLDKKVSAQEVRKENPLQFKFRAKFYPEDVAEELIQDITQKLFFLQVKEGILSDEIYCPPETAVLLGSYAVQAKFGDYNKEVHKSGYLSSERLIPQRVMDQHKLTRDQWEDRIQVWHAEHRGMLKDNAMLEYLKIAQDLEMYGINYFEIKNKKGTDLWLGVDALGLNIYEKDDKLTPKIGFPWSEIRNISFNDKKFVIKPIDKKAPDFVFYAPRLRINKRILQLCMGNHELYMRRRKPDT

For the substance “NHERF1 C-terminal domain (from UniProt O14745)”, the Kd was 19 nM.
